For data set [1], the system named is HeLa Kyoto. The data set is described as follows: solubility in G1/S (NP-40 vs SDS abundance) (log2 ratio); higher = more soluble. Conditions: cell cycle stage: G1/S.
The test system of data set [2] is HeLa Kyoto. The data set is described as follows: melting temperature (median over replicates), in situ; higher = more thermally stable.
Data set [3] deals with HeLa Kyoto. The data set is described as follows: thermal stability score vs G1/S (z-score of summed log2 fold changes over temperatures); higher = more thermally stable than in G1/S.
The subject of data set [4] is HeLa Kyoto. The data set is described as follows: solubility change mitosis vs G1/S (difference of NP-40 vs SDS log2 ratios) (log2 ratio difference); higher = more soluble in mitosis.
Where [5] appears, read: cell cycle stage: early G1 (4.5 h after nocodazole release).
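Throughout, for melting temperature (median over replicates), in situ: HeLa Kyoto cells synchronized by double thymidine or nocodazole block, proteins quantified by TMT10plex mass spectrometry, three independent biological replicates.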
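Throughout, for solubility change mitosis vs G1/S (difference of NP-40 vs SDS log2 ratios): synchronized HeLa Kyoto cells (double thymidine block for G1/S, nocodazole release for mitosis), protein amounts in NP-40 versus SDS lysates quantified by mass spectrometry, three biological replicates.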
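Throughout, for solubility in G1/S (NP-40 vs SDS abundance): HeLa Kyoto cells arrested at G1/S by double thymidine block, proteins quantified by TMT10plex mass spectrometry in mild NP-40 versus SDS extracts, three biological replicates.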
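Throughout, for thermal stability score vs G1/S (z-score of summed log2 fold changes over temperatures): synchronized HeLa Kyoto cells, proteins quantified by TMT10plex mass spectrometry, three biological replicates, mitosis taken 0.5 h after nocodazole release, G1/S directly after double thymidine block.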

As for “MFWKFDLHSSSHIDTLLEREDVTLKELMDEEDVLQECKAQNRKLIEFLLKAECLEDLVSFIIEEPPQDMDEKIRYKYPNISCELLTSDVSQMNDRLGEDESLLMKLYSFLLNDSPLNPLLASFFSKVLSILISRKPEQIVDFLKKKHDFVDLIIKHIGTSAIMDLLLRLLTCIEPPQPRQDVLNWLNEEKIIQRLVEIVHPSQEEDRHSNASQSLCEIVRLSRDQMLQIQNSTEPDPLLATLEKQEIIEQLLSNIFHKEKNESAIVSAIQILLTLLETRRPTFEGHIEICPPGMSHSACSVNKSVLEAIRGRLGSFHELLLEPPKKSVMKTTWGVLDPPVGNTRLNVIRLISSLLQTNTSSINGDLMELNSIGVILNMFFKYTWNNFLHTQVEICIALILASPFENTENATITDQDSTGDNLLLKHLFQKCQLIERILEAWEMNEKKQAEGGRRHGYMGHLTRIANCIVHSTDKGPNSALVQQLIKDLPDEVRERWETFCTSSLGETNKRNTVDLVTTCHIHSSSDDEIDFKETGFSQDSSLQQAFSDYQMQQMTSNFIDQFGFNDEKFADQDDIGNVSFDRVSDINFTLNTNESGNIALFEACCKERIQQFDDGGSDEEDIWEEKHIAFTPESQRRSSSGSTDSEESTDSEEEDGAKQDLFEPSSANTEDKMEVDLSEPPNWSANFDVPMETTHGAPLDSVGSDVWSTEEPMPTKETGWASFSEFTSSLSTKDSLRSNSPVEMETSTEPMDPLTPSAAALAVQPEAAGSVAMEASSDGEEDAESTDKVTETVMNGGMKETLSLTVDAKTETAVFKSEEGKLSTSQDAACKDAEECPETAEAKCAAPRPPSSSPEQRTGQPSAPGDTSVNGPV [PPP6R3]”, the “solubility in G1/S (log2)” value with HeLa Kyoto [1] is -0.236. Also, the melting temperature in the data set with HeLa Kyoto [2] (cell cycle stage: G1/S) stood at 54.9 °C; in the data set on HeLa Kyoto [2] (cell cycle stage: mitosis) it was 54.1 °C. Further, the figures for the thermal stability score in the data set on HeLa Kyoto [3] (setting [5]) and in the data set with HeLa Kyoto [3] (cell cycle stage: mitosis) were -1.86 and -1.84, respectively. In addition, the “solubility change mitosis (log2)” value in the data set with HeLa Kyoto [4] was -0.12.

As to “MFWKFDLNTTSHVDKLLDKEHVTLQELMDEDDILQECKAQNQKLLDFLCRQQCMEELVSLITQDPPLDMEEKVRFKYPNTACELLTCDVPQISDRLGGDESLLSLLYDFLDHEPPLNPLLASFFSKTIGNLIARKTEQVITFLKKKDKFISLVLKHIGTSALMDLLLRLVSCVEPAGLRQDVLHWLNEEKVIQRLVELIHPSQDEDRQSNASQTLCDIVRLGRDQGSQLQEALEPDPLLTALESQDCVEQLLKNMFDGDRTESCLVSGTQVLLTLLETRRVGTEGLVDSFSQGLERSYAVSSSVLHGIEPRLKDFHQLLLNPPKKKAILTTIGVLEEPLGNARLHGARLMAALLHTNTPSINQELCRLNTMDLLLDLFFKYTWNNFLHFQVELCIAAILSHAAREERTEASGSESRVEPPHENGNRSLETPQPAASLPDNTMVTHLFQKCCLVQRILEAWEANDHTQAAGGMRRGNMGHLTRIANAVVQNLERGPVQTHISEVIRGLPADCRGRWESFVEETLTETNRRNTVDLVSTHHLHSSSEDEDIEGAFPNELSLQQAFSDYQIQQMTANFVDQFGFNDEEFADQDDNINAPFDRIAEINFNIDADEDSPSAALFEACCSDRIQPFDDDEDEDIWEDSDTRCAARVMARPRFGAPHASESCSKNGPERGGQDGKASLEAHRDAPGAGAPPAPGKKEAPPVEGDSEGAMWTAVFDEPANSTPTAPGVVRDVGSSVWAAGTSAPEEKGWAKFTDFQPFCCSESGPRCSSPVDTECSHAEGSRSQGPEKASQASYFAVSPASPCAWNVCVTRKAPLLASDSSSSGGSHSEDGDQKAASAMDAVSRGPGREAPPLPTVARTEEAVGRVGCADSRLLSPACPAPKEVTAAPAVAVPPEATVAITTALSKAGPAIPTPAVSSALAVAVPLGPIMAVTAAPAMVATLGTVTKDGKTDAPPEGAALNGPV [PPP6R2]”, in the data set on HeLa Kyoto [1], the “solubility in G1/S (log2)” value is 0.0656. Moreover, the melting temperature was 54.5 °C in the data set on HeLa Kyoto [2] (cell cycle stage: G1/S) and 52.8 °C in the data set on HeLa Kyoto [2] (cell cycle stage: mitosis). In addition, the thermal stability score with HeLa Kyoto [3] (setting [5]) was -0.206; with HeLa Kyoto [3] (cell cycle stage: mitosis), -1.5. Moreover, in the data set with HeLa Kyoto [4], the “solubility change mitosis (log2)” value is -0.119.

For “MGALVIRGIRNFNLENRAEREISKMKPSVAPRHPSTNSLLREQISLYPEVKGEIARKDEKLLSFLKDVYVDSKDPVSSLQVKAAETCQEPKEFRLPKDHHFDMINIKSIPKGKISIVEALTLLNNHKLFPETWTAEKIMQEYQLEQKDVNSLLKYFVTFEVEIFPPEDKKAIRSK [NDUFAF4]”, in the data set with HeLa Kyoto [1], the “solubility in G1/S (log2)” value was 0.314. For the same sequence, the melting temperature with HeLa Kyoto [2] (cell cycle stage: G1/S) amounted to 50.4 °C; with HeLa Kyoto [2] (cell cycle stage: mitosis) it was 54.2 °C. For the same sequence, the figures for the thermal stability score in the data set with HeLa Kyoto [3] (setting [5]) and in the data set on HeLa Kyoto [3] (cell cycle stage: mitosis) were -2.2 and -2.98, respectively. Further, in the data set on HeLa Kyoto [4], the “solubility change mitosis (log2)” value is -0.0449.

On to “MGAQLSTLGHMVLFPVWFLYSLLMKLFQRSTPAITLESPDIKYPLRLIDREIISHDTRRFRFALPSPQHILGLPVGQHIYLSARIDGNLVVRPYTPISSDDDKGFVDLVIKVYFKDTHPKFPAGGKMSQYLESMQIGDTIEFRGPSGLLVYQGKGKFAIRPDKKSNPIIRTVKSVGMIAGGTGITPMLQVIRAIMKDPDDHTVCHLLFANQTEKDILLRPELEELRNKHSARFKLWYTLDRAPEAWDYGQGFVNEEMIRDHLPPPEEEPLVLMCGPPPMIQYACLPNLDHVGHPTERCFVF [CYB5R3]”, for which the “solubility in G1/S (log2)” value in the data set with HeLa Kyoto [1] is -0.215. Further, the melting temperature in the data set with HeLa Kyoto [2] (cell cycle stage: G1/S) is 56 °C; in the data set with HeLa Kyoto [2] (cell cycle stage: mitosis) it was 55.8 °C. The figures for the thermal stability score in the data set with HeLa Kyoto [3] (setting [5]) and with HeLa Kyoto [3] (cell cycle stage: mitosis) were -1.92 and -2.76, respectively. Further, the “solubility change mitosis (log2)” value with HeLa Kyoto [4] was -0.158.

Consider “MGASARLLRAVIMGAPGSGKGTVSSRITTHFELKHLSSGDLLRDNMLRGTEIGVLAKAFIDQGKLIPDDVMTRLALHELKNLTQYSWLLDGFPRTLPQAEALDRAYQIDTVINLNVPFEVIKQRLTARWIHPASGRVYNIEFNPPKTVGIDDLTGEPLIQREDDKPETVIKRLKAYEDQTKPVLEYYQKKGVLETFSGTETNKIWPYVYAFLQTKVPQRSQKASVTP [AK3]”, for which the “solubility in G1/S (log2)” value in the data set on HeLa Kyoto [1] is 0.43. In addition, the melting temperature in the data set with HeLa Kyoto [2] (cell cycle stage: G1/S) was 54.3 °C; with HeLa Kyoto [2] (cell cycle stage: mitosis), 54.2 °C. Moreover, the thermal stability score was -1.02 with HeLa Kyoto [3] (setting [5]) and -2.48 in the data set with HeLa Kyoto [3] (cell cycle stage: mitosis). In addition, the “solubility change mitosis (log2)” value with HeLa Kyoto [4] is 0.00633.

For “MGAVWSALLVGGGLAGALFVWLLRGGPGDTGKDGDAEQEKDAPLGGAAIPGGHQSGSSGLSPGPSGQELVTKPEHLQESNGHLISKTKDLGKLQAASWRLQNPSREVCDNSREHVPSGQFPDTEAPATSETSNSRSYSEVSRNESLESPMGEWGFQKGQEISAKAATCFAEKLPSSNLLKNRAKEEMSLSDLNSQDRVDHEEWEMVPRHSSWGDVGVGGSLKAPVLNLNQGMDNGRSTLVEARGQQVHGKMERVAVMPAGSQQVSVRFQVHYVTSTDVQFIAVTGDHECLGRWNTYIPLHYNKDGFWSHSIFLPADTVVEWKFVLVENGGVTRWEECSNRFLETGHEDKVVHAWWGIH [STBD1]”, in the data set with HeLa Kyoto [1], the “solubility in G1/S (log2)” value was -0.336. Besides, the figures for the melting temperature in the data set on HeLa Kyoto [2] (cell cycle stage: G1/S) and in the data set on HeLa Kyoto [2] (cell cycle stage: mitosis) were 50.7 °C and 50.3 °C, respectively. Moreover, the thermal stability score with HeLa Kyoto [3] (setting [5]) is 0.314; with HeLa Kyoto [3] (cell cycle stage: mitosis), -0.125. In addition, the “solubility change mitosis (log2)” value in the data set on HeLa Kyoto [4] was -0.0441.

With “MGCCSSASSAAQSSKREWKPLEDRSCTDIPWLLLFILFCIGMGFICGFSIATGAAARLVSGYDSYGNICGQKNTKLEAIPNSGMDHTQRKYVFFLDPCNLDLINRKIKSVALCVAACPRQELKTLSDVQKFAEINGSALCSYNLKPSEYTTSPKSSVLCPKLPVPASAPIPFFHRCAPVNISCYAKFAEALITFVSDNSVLHRLISGVMTSKEIILGLCLLSLVLSMILMVIIRYISRVLVWILTILVILGSLGGTGVLWWLYAKQRRSPKETVTPEQLQIAEDNLRALLIYAISATVFTVILFLIMLVMRKRVALTIALFHVAGKVFIHLPLLVFQPFWTFFALVLFWVYWIMTLLFLGTTGSPVQNEQGFVEFKISGPLQYMWWYHVVGLIWISEFILACQQMTVAGAVVTYYFTRDKRNLPFTPILASVNRLIRYHLGTVAKGSFIITLVKIPRMILMYIHSQLKGKENACARCVLKSCICCLWCLEKCLNYLNQNAYTATAINSTNFCTSAKDAFVILVENALRVATINTVGDFMLFLGKVLIVCSTGLAGIMLLNYQQDYTVWVLPLIIVCLFAFLVAHCFLSIYEMVVDVLFLCFAIDTKYNDGSPGREFYMDKVLMEFVENSRKAMKEAGKGGVADSRELKPMASGASSA [SLC44A1]”, the “solubility in G1/S (log2)” value in the data set on HeLa Kyoto [1] is -0.0157. In the data set with HeLa Kyoto [2] (cell cycle stage: G1/S), this sequence registered a melting temperature of 55.7 °C. Besides, the thermal stability score in the data set on HeLa Kyoto [3] (setting [5]) is -1.35; in the data set on HeLa Kyoto [3] (cell cycle stage: mitosis), -2.05. Also, in the data set on HeLa Kyoto [4], the “solubility change mitosis (log2)” value is -0.147.

In the case of “MGCTLSAEDKAAVERSKMIDRNLREDGEKAAKEVKLLLLGAGESGKSTIVKQMKIIHEDGYSEDECKQYKVVVYSNTIQSIIAIIRAMGRLKIDFGEAARADDARQLFVLAGSAEEGVMTPELAGVIKRLWRDGGVQACFSRSREYQLNDSASYYLNDLDRISQSNYIPTQQDVLRTRVKTTGIVETHFTFKDLYFKMFDVGGQRSERKKWIHCFEGVTAIIFCVALSDYDLVLAEDEEMNRMHESMKLFDSICNNKWFTETSIILFLNKKDLFEEKIKRSPLTICYPEYTGSNTYEEAAAYIQCQFEDLNRRKDTKEIYTHFTCATDTKNVQFVFDAVTDVIIKNNLKECGLY [GNAI3]”, the “solubility in G1/S (log2)” value in the data set with HeLa Kyoto [1] is -0.638. The melting temperature with HeLa Kyoto [2] (cell cycle stage: G1/S) came out at 53.5 °C; in the data set with HeLa Kyoto [2] (cell cycle stage: mitosis) it was 54.2 °C. Besides, the thermal stability score in the data set on HeLa Kyoto [3] (setting [5]) is 0.761; with HeLa Kyoto [3] (cell cycle stage: mitosis) it was 0.823. In the data set on HeLa Kyoto [4], the “solubility change mitosis (log2)” value is -0.175.

For the origin of these results see the supplement of paper PMC5998384.
